Reference: article PMC13534707, “Vps1 drives membrane constriction and fission necessary for endosomal protein sorting” (The EMBO Journal, 2026)
Substitutions are numbered along the chain they refer to. Names and notes keep the numbering of the source.

B1: Vps1(Δ3K) (enzyme, S. cerevisiae, UniProt P21576 1-704, looked up)
chain: MDEHLISTINKLQDALAPLGGGSQSPIDLPQITVVGSQSSGKSSVLENIVGRDFLPRGTGIVTRRPLVLQLINRRPKKSEHAKVNQTANELIDLNINDDDKKKDESGKHQNEGQSEDNKEEWGEFLHLPGKKFYNFDEIRKEIVKETDKVTGANSGISSVPINLRIYSPHVLTLTLVDLPGLTKVPVGDQPPDIERQIKDMLLKYISKPNAIILSVNAANTDLANSDGLKLAREVDPEGTRTIGVLTKVDLMDQGTDVIDILAGRVIPLRYGYIPVINRGQKDIEHKKTIREALENERKFFENHPSYSSKAHYCGTPYLAKKLNSILLHHIRQTLPEIKAKIEATLKKYQNELINLGPETMDSASSVVLSMITDFSNEYAGILDGEAKELSSQELSGGARISYVFHETFKNGVDSLDPFDQIKDSDIRTIMYNSSGSAPSLFVGTEAFEVLVKQQIRRFEEPSLRLVTLVFDELVRMLKQIISQPKYSRYPALREAISNQFIQFLKDATIPTNEFVVDIIKAEQTYINTAHPDLLKGSQAMVMVEEKLHPRQVAVDPKTGKPLPTQPSSSKAPVMEEKSGFFGGFFSTKNLAALESPPPVLKATGQMTERETMETEVIKLLISSYFSIVKRTIADIIPKALMLKLIVKSKTDIQKVLLEKLYGKQDIEELTKENDITIQRRKECKKMVEILRNASQIVSSV
notes: Vps1, S. cerevisiae, lacking the lysine-rich 3K motif (residues 591-593) of Insert B; Same tags as m1; source: bacterially expressed, T7 Express (NEB), purified (Strep-trap HP or Streptactin XT)
B2: Vacuolar protein sorting-associated protein 1 (Vps1), wild type, recombinant (enzyme, S. cerevisiae, UniProt P21576 1-704, looked up)
chain: MDEHLISTINKLQDALAPLGGGSQSPIDLPQITVVGSQSSGKSSVLENIVGRDFLPRGTGIVTRRPLVLQLINRRPKKSEHAKVNQTANELIDLNINDDDKKKDESGKHQNEGQSEDNKEEWGEFLHLPGKKFYNFDEIRKEIVKETDKVTGANSGISSVPINLRIYSPHVLTLTLVDLPGLTKVPVGDQPPDIERQIKDMLLKYISKPNAIILSVNAANTDLANSDGLKLAREVDPEGTRTIGVLTKVDLMDQGTDVIDILAGRVIPLRYGYIPVINRGQKDIEHKKTIREALENERKFFENHPSYSSKAHYCGTPYLAKKLNSILLHHIRQTLPEIKAKIEATLKKYQNELINLGPETMDSASSVVLSMITDFSNEYAGILDGEAKELSSQELSGGARISYVFHETFKNGVDSLDPFDQIKDSDIRTIMYNSSGSAPSLFVGTEAFEVLVKQQIRRFEEPSLRLVTLVFDELVRMLKQIISQPKYSRYPALREAISNQFIQFLKDATIPTNEFVVDIIKAEQTYINTAHPDLLKGSQAMVMVEEKLHPRQVAVDPKTGKPLPTQPSSSKAPVMEEKSGFFGGFFSTKNKKKLAALESPPPVLKATGQMTERETMETEVIKLLISSYFSIVKRTIADIIPKALMLKLIVKSKTDIQKVLLEKLYGKQDIEELTKENDITIQRRKECKKMVEILRNASQIVSSV
notes: Vps1, S. cerevisiae; the Vps1 gene amplified from genomic DNA and cloned into pET15b; A TEV site follows the N-terminal 6xHis tag; also called WT; wild-type Vps1; source: bacterially expressed, T7 Express (NEB), purified (Strep-trap HP or Streptactin XT)
B3: Vps1(G436D) (enzyme, S. cerevisiae, UniProt P21576 1-704, looked up)
chain: B2 chain with G436D
notes: Vps1, S. cerevisiae, with G436D made by site-directed mutagenesis of the pET15b construct; Same tags as m1; source: bacterially expressed, T7 Express (NEB), purified (Strep-trap HP or Streptactin XT)
B4: Vps1(Δ4F) (enzyme, S. cerevisiae, UniProt P21576 1-704, looked up)
chain: MDEHLISTINKLQDALAPLGGGSQSPIDLPQITVVGSQSSGKSSVLENIVGRDFLPRGTGIVTRRPLVLQLINRRPKKSEHAKVNQTANELIDLNINDDDKKKDESGKHQNEGQSEDNKEEWGEFLHLPGKKFYNFDEIRKEIVKETDKVTGANSGISSVPINLRIYSPHVLTLTLVDLPGLTKVPVGDQPPDIERQIKDMLLKYISKPNAIILSVNAANTDLANSDGLKLAREVDPEGTRTIGVLTKVDLMDQGTDVIDILAGRVIPLRYGYIPVINRGQKDIEHKKTIREALENERKFFENHPSYSSKAHYCGTPYLAKKLNSILLHHIRQTLPEIKAKIEATLKKYQNELINLGPETMDSASSVVLSMITDFSNEYAGILDGEAKELSSQELSGGARISYVFHETFKNGVDSLDPFDQIKDSDIRTIMYNSSGSAPSLFVGTEAFEVLVKQQIRRFEEPSLRLVTLVFDELVRMLKQIISQPKYSRYPALREAISNQFIQFLKDATIPTNEFVVDIIKAEQTYINTAHPDLLKGSQAMVMVEEKLHPRQVAVDPKTGKPLPTQPSSSKAPVMEEKTKNKKKLAALESPPPVLKATGQMTERETMETEVIKLLISSYFSIVKRTIADIIPKALMLKLIVKSKTDIQKVLLEKLYGKQDIEELTKENDITIQRRKECKKMVEILRNASQIVSSV
notes: Vps1, S. cerevisiae, lacking the phenylalanine-rich 4F motif (residues 579-587) of Insert B; Same tags as m1; source: bacterially expressed, T7 Express (NEB), purified (Strep-trap HP or Streptactin XT)

How the values were obtained:
[1] = biological target: Vps1(ΔInsB) (S. cerevisiae) (UniProt P21576); assay: SEC-MALS; purified Vps1 (~0.32 mg/ml) on Superose 6 10/300 GL, 20 mM HEPES pH 7.5, 150 mM NaCl, room temperature; self-association in solution
[2] = biological target: the molecule itself; assay: as above

| Molecule | stoichiometry N [2] | further results |
| --- | --- | --- |
| Vps1(ΔInsB) (from UniProt P21576 1-535; P21576 613-704) (enzyme) |  | stoichiometry N [1]: 2 |
| B1 | 4 |  |
| B2 |  | binding result [2]: binds |
| B3 | 2 |  |
| B4 | 4 |  |
